Results taken from patent publication CN115073602A (SUZHOU ABCARTA MEDICAL TECH CO LTD, dated 2022).

Experiments:
CD3抗原 (SEQ ID NO:1 合成多肽) = molecular target: T1, CD3抗原 (SEQ ID NO:1 合成多肽); assay: ELISA screening of hybridoma clones on CD3 antigen (SEQ ID NO:1)
T1 construct: KLH/OVA conjugation is stated for immunisation only; also called CD3的多肽
T1 peptide: KGQRDLYSGLNQRRI

CD3蛋白 (表达CD3蛋白的细胞) = molecular target: T2, CD3蛋白 (表达CD3蛋白的细胞); assay: flow cytometry on CD3-expressing cells, against blank control without antibody
T2 construct: whole, on cells; also called 表达CD3蛋白细胞
T2 sequence (P07766 23-207): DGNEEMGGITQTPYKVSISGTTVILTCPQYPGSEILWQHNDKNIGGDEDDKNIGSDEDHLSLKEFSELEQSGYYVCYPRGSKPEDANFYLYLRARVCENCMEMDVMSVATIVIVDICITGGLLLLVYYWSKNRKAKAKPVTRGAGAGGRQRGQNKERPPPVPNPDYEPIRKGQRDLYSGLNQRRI

B1: 230B2F6抗CD3重组兔单克隆抗体 (antibody, V domains shown)
VH: QSLEESGGRLVTPGTPLTLTCTASGFSLNDYWMSWVRQAPGKGLEWIGIIIRGGTTWYANWVKGRFTISKTSTTVDLKMTSPTTEDTATYFCARIGGGNTGFNLWGPGTLVTVSS
VL: AQVLTQTPSSVSEPVGGTVTINCQASENIYISLAWYQQKPGQPPNLLIYDASDLASGVPSRFSGSGSGTEFTLTISGVQCEDAATYYCQSYNYSSVTFGGGTEVVVK
notes: also called 230B2F6抗体; 230B2F6抗CD3单克隆抗体
- binding result (CD3抗原 (SEQ ID NO:1 合成多肽)): binds
- fold increase of MFI over blank control (CD3蛋白 (表达CD3蛋白的细胞)): 1070 fold
